According to patent US20100144634A1 (published 2010):

How the values were obtained:
[1] = target: B-domainless derivative of human factor VIII, FVIII-SQ, P00451
[2] = target: T1, human factor VIII derivative lacking the entire B domain and acidic region a3 (741-1689), FVIII-2RKR, P00451
T1 chain 1: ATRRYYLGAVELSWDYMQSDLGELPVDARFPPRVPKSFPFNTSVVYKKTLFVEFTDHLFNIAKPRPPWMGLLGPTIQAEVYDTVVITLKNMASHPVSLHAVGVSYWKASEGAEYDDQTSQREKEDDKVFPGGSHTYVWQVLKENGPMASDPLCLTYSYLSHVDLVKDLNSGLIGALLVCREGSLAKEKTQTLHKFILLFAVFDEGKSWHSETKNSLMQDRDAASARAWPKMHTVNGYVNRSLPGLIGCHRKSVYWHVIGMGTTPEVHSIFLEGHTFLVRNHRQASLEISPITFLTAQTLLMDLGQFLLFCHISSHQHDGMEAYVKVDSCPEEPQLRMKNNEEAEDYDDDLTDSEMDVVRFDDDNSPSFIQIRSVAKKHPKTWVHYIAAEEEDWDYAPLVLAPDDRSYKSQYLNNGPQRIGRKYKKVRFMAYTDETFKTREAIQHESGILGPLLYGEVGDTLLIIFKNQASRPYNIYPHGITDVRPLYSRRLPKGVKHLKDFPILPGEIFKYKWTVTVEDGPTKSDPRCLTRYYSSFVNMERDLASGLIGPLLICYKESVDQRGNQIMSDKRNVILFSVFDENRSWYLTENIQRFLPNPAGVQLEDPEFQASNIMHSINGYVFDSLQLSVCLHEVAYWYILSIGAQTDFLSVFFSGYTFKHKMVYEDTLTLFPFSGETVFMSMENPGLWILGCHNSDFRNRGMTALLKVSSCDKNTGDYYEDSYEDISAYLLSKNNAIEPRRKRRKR
T1 chain 2: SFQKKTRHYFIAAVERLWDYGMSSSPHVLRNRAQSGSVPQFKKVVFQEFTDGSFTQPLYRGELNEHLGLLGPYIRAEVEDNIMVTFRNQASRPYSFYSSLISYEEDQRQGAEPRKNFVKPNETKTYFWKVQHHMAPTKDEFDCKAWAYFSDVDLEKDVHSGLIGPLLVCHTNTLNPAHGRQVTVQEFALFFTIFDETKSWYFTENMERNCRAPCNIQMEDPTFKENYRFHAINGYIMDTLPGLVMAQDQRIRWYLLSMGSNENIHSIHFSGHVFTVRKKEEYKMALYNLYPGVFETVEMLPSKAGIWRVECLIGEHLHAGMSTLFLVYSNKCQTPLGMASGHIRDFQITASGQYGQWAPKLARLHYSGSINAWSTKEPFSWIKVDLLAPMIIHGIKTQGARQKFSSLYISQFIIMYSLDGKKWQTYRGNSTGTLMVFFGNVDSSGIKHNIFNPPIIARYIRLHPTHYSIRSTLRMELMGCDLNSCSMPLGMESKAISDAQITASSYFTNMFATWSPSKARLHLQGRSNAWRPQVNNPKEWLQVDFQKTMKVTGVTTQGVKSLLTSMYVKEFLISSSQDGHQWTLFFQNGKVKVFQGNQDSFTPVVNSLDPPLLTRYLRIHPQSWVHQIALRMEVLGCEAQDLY

[3] = target: recombinant human full-length coagulation factor VIII, P00451
[4] = target: T2, von Willebrand factor pre-denatured with 1.5 M guanidine-HCl at 37 C for two hours (UniProt P04275 764-2813); experiment: SPR (BIAcore), guanidine-HCl denatured VWF injected over immobilised FL-A13, equilibrium fit
T2 construct: mature; Same polypeptide as m1; also called VWF**; denatured VWF

[5] = target: T3, von Willebrand factor (VWF), purified plasma-derived, multimeric, native (UniProt P04275 764-2813); experiment: SPR (BIAcore), VWF injected under flow over FL-A13 immobilised on CM5, equilibrium fit, no EDTA
T3 construct: mature; human is implied; also called pvWF; plasma VWF
Method: Briefly, the surface of a carboxymethylated dextran (CM5) chip was activated by injection of 35 μl mixture (1:1, vol:vol) of 0.4 M 1-ethyl-3-(3-dimethylaminopropyl) carbodiimide and 0.1 M N-hydroxysuccinimide according to manufacturer's instruction (BIAcore, Uppsala, Sweden). Approximately 2,000 to 8,000 response units (RU) (2˜10 ng/mm²) of purified recombinant proteins were covalently attached onto the activated CM5 chip surface. The control surface was activated similarly, but blocked by same amount of BSA (Sigma, St. Louis, Mo.). The reactive groups on the dextran surface were blocked by injection of 35 μl of 1 M ethanolamine (pH 8.5) at flow rate of 5 μl per min for 7 min. Then, purified plasma VWF at various concentrations (0-250 μg/ml or 0-1,000 nM as in FIG. 3; 0-125 μg/ml or 0-500 nM as in FIG. 4) in 10 mM HEPES, 150 mM NaCl, pH 7.5 containing 0.005% Tween 20 and 2 mg/ml BSA (HBS-T) were injected and passed over the surface at injection rate 10 to 100 μl/min or 20 μl/min for 3-5 min. […] The dissociation constants, KD (S) at the equilibrium were determined by fitting the data from the binding isotherm using a non-linear regression curve on the PRISM4 software (GraphPad Software, Inc., San Diego, Calif.). […]

[6] = target: T3, von Willebrand factor (VWF), purified …; experiment: SPR (BIAcore), VWF injected under flow over immobilised FL-A13, equilibrium fit, in the presence of 10 mM EDTA
Method: Approximately 2,000 to 8,000 response units (RU) (2˜10 ng/mm²) of purified recombinant proteins were covalently attached onto the activated CM5 chip surface. The control surface was activated similarly, but blocked by same amount of BSA (Sigma, St. Louis, Mo.). The reactive groups on the dextran surface were blocked by injection of 35 μl of 1 M ethanolamine (pH 8.5) at flow rate of 5 μl per min for 7 min. Then, purified plasma VWF at various concentrations (0-250 μg/ml or 0-1,000 nM as in FIG. 3; 0-125 μg/ml or 0-500 nM as in FIG. 4) in 10 mM HEPES, 150 mM NaCl, pH 7.5 containing 0.005% Tween 20 and 2 mg/ml BSA (HBS-T) were injected and passed over the surface at injection rate 10 to 100 μl/min or 20 μl/min for 3-5 min. The HBS-T replaced the protein solution and continued to flow for approximately 4 min; further washing with HBS-T for 20-30 min regenerated the surfaces prior to the next injection. The dissociation constants, KD (S) at the equilibrium were determined by fitting the data from the binding isotherm using a non-linear regression curve on the PRISM4 software (GraphPad Software, Inc., San Diego, Calif.).
Fitting the data directly using BIAcore evaluation software, although it is relatively easy, may overestimate the binding affinity between VWF and ADAMTS13 due to the heterogeneity of VWF molecules. […]

Kd [4]: 0.083 µM
Kd [5]: 0.05 µM
Kd [6]: 0.077 µM
B1: full-length ADAMTS13, recombinant, C-terminal V5-His (enzyme, UniProt Q76LX8 75-1427, looked up, not shown: small tags and cut ends)
chain: AAGGILHLELLVAVGPDVFQAHQEDTERYVLTNLNIGAELLRDPSLGAQFRVHLVKMVILTEPEGAPNITANLTSSLLSVCGWSQTINPEDDTDPGHADLVLYITRFDLELPDGNRQVRGVTQLGGACSPTWSCLITEDTGFDLGVTIAHEIGHSFGLEHDGAPGSGCGPSGHVMASDGAAPRAGLAWSPCSRRQLLSLLSAGRARCVWDPPRPQPGSAGHPPDAQPGLYYSANEQCRVAFGPKAVACTFAREHLDMCQALSCHTDPLDQSSCSRLLVPLLDGTECGVEKWCSKGRCRSLVELTPIAAVHGRWSSWGPRSPCSRSCGGGVVTRRRQCNNPRPAFGGRACVGADLQAEMCNTQACEKTQLEFMSQQCARTDGQPLRSSPGGASFYHWGAAVPHSQGDALCRHMCRAIGESFIMKRGDSFLDGTRCMPSGPREDGTLSLCVSGSCRTFGCDGRMDSQQVWDRCQVCGGDNSTCSPRKGSFTAGRAREYVTFLTVTPNLTSVYIANHRPLFTHLAVRIGGRYVVAGKMSISPNTTYPSLLEDGRVEYRVALTEDRLPRLEEIRIWGPLQEDADIQVYRRYGEEYGNLTRPDITFTYFQPKPRQAWVWAAVRGPCSVSCGAGLRWVNYSCLDQARKELVETVQCQGSQQPPAWPEACVLEPCPPYWAVGDFGPCSASCGGGLRERPVRCVEAQGSLLKTLPPARCRAGAQQPAVALETCNPQPCPARWEVSEPSSCTSAGGAGLALENETCVPGADGLEAPVTEGPGSVDEKLPAPEPCVGMSCPPGWGHLDATSAGEKAPSPWGSIRTGAQAAHVWTPAAGSCSVSCGRGLMELRFLCMDSALRVPVQEELCGLASKPGSRREVCQAVPCPARWQYKLAACSVSCGRGVVRRILYCARAHGEDDGEEILLDTQCQGLPRPEPQEACSLEPCPPRWKVMSLGPCSASCGLGTARRSVACVQLDQGQDVEVDEAACAALVRPEASVPCLIADCTYRWHVGTWMECSVSCGDGIQRRRDTCLGPQAQAPVPADFCQHLPKPVTVRGCWAGPCVGQGTPSLVPHEEAAAPGRTTATPAGASLEWSQARGLLFSPAPQPRRLLPGPQENSVQSSACGRQHLEPTGTIDMRGPGQADCAVAIGRPLGEVVTLRVLESSLNCSAGDMLLLWGRLTWRKMCRKLLDMTFSSKTNTLVVRQRCGRPGGGVLLRYGSQLAPETFYRECDMQLFGPWGEIVSPSLSPATSNAGGCRLFINVAPHARIAIHALATNMGAGTEGANASYILIRDTHSLRTTAFHGQQVLYWESESSQAEMEFSEGFLKAQASLRGQYWTLQSWVPEMQDPQSWKGKEGT
notes: mature; also called FL-A13; FL-AD13
increase of the initial rate of cleavage of FRETS-vWF73 and GST-vWF73 by ADAMTS13 [1]: by a factor of 2 or 3
increase of the initial rate of cleavage of FRETS-vWF73 and GST-vWF73 by ADAMTS13 [2]: by a factor of 2 or 3
increase of the initial rate of cleavage of FRETS-vWF73 and GST-vWF73 by ADAMTS13 [3]: by a factor of 2 or 3
